B1: GFP-Ait1 (natural protein, S. cerevisiae, UniProt Q12301 1-547, looked up)
chain: MVRLNHAASYFMPIFCSTRPHIVILSALFSISLFSLFYASSELLLHQYDDPLMFKPNSQDYFRTFLLGLFSPFLYYFLKTFLFNINQRFLILNLIVDFPINDVFMLLILIGLAYPQVQDHEGGTIKHKECSWHIIPRQAYIFGISWALGEFTICIIGNLFNYQEIADPNINSGFTHQESANTYCNNNDMSHNDDCGCSTEYRPNVVDRSDITLSKCIEVRNDSSSISNNVYSSEYHPIKPLRSSSSTYGSIRQQPHENKKQLHVPDNSQDDTIIMMNPIDNSLKLTTLDTGDLSFPIDEEQPILKKSFGYTWAVPNENTQNTTKSFTPIKRFIAFSTAYQLVTGLLLMILVVGSNIMLTIGESLILSMYFVYVRGHEGLFTPVVNYFGSRTISNFILCVIIPFISLNFLINTSIYLRRELDDWFNNSQGEFEDDDENTISKRVATNQEYQHPLSANYISMDSPDVINSSPGHFGMNSGQLLGNTTLYYGSLNGDDDDMTNDSALLRFCKKLVKNWRALARNDSFVLGVMVSWSLLVFVTGILSTVYI
notes: Ait1 (Ydl180w), GPCR-like protein of the vacuolar membrane, S. cerevisiae; The strain list is in Supplementary file 3; source: S. cerevisiae (W303) strain carrying GFP-Ait1, in lysate; not shown: GFP, N-terminal, kept
B2: Gtr1-myc (natural protein, S. cerevisiae, UniProt Q00582 1-310, looked up)
chain: MSSNNRKKLLLMGRSGSGKSSMRSIIFSNYSAFDTRRLGATIDVEHSHLRFLGNMTLNLWDCGGQDVFMENYFTKQKDHIFQMVQVLIHVFDVESTEVLKDIEIFAKALKQLRKYSPDAKIFVLLHKMDLVQLDKREELFQIMMKNLSETSSEFGFPNLIGFPTSIWDESLYKAWSQIVCSLIPNMSNHQSNLKKFKEIMNALEIILFERTTFLVICSSNGENSNENHDSSDNNNVLLDPKRFEKISNIMKNFKQSCTKLKSGFKTLILNNNIYVSELSSNMVCFIVLKDMNIPQELVLENIKKAKEFFQ
notes: Gtr1, small GTPase (homolog of RagA/B), S. cerevisiae; also called Gtr1/2; source: S. cerevisiae (W303) strain carrying Gtr1-myc, in lysate

How the values were obtained:
Kog1-FLAG = molecular target: T1, Kog1-FLAG (S. cerevisiae, UniProt P38873 1-1557); assay: co-IP; Kog1-FLAG immunopurified on anti-FLAG beads after DSP crosslinking; blot with anti-GFP and anti-FLAG; with and without amino acids, long-term amino acid and glucose starvation, also with 4x protease inhibitors; conditions: partners not purified
T1 construct: Kog1 (Raptor homolog), subunit of TORC1, S. cerevisiae; Bait on anti-FLAG beads; The strain list is in Supplementary file 3; also called Kog1/Raptor; TORC1 subunit Kog1; source: S. cerevisiae (W303) strain carrying Kog1-FLAG, in lysate
T1 sequence (P38873 whole entry): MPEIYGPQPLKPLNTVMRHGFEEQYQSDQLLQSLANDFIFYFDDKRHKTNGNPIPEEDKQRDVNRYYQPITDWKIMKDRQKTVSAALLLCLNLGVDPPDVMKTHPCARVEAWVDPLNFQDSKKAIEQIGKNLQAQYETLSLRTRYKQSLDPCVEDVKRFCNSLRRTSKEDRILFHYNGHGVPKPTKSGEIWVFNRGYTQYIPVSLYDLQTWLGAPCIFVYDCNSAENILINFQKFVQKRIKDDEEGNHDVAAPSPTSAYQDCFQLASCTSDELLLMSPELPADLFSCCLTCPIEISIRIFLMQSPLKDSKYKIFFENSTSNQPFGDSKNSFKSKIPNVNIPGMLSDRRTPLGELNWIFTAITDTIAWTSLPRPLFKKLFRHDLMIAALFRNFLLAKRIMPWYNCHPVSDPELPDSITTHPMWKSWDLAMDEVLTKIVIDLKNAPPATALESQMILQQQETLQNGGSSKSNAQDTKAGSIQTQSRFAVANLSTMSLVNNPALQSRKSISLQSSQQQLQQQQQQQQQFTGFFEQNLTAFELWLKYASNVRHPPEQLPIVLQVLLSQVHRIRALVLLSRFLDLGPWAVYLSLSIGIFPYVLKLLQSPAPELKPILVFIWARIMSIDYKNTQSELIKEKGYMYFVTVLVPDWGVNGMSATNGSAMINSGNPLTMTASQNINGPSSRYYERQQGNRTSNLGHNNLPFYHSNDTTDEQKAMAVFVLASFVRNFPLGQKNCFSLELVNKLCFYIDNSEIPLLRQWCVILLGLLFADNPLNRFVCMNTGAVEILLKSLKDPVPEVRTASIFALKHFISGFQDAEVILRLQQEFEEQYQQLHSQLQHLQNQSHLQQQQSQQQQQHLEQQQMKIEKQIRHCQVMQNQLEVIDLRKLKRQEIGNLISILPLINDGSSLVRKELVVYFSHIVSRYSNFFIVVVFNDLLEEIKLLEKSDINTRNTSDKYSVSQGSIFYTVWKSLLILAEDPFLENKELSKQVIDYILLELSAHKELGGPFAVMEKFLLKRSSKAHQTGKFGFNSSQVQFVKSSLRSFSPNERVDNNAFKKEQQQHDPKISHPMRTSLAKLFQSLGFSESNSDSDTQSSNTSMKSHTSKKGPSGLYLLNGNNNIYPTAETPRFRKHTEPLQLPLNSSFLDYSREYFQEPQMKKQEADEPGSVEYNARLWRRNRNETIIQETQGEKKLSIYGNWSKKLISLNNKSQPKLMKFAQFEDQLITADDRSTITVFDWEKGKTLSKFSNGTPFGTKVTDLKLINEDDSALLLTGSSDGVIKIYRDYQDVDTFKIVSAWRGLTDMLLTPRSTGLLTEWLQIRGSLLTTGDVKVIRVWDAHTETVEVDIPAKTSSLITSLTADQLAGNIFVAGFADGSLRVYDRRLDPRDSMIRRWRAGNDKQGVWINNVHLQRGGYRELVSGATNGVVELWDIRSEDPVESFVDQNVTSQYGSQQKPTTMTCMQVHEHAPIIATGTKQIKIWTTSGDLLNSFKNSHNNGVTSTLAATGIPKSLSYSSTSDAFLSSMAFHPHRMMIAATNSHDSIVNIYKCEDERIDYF

GFP-Ait1 = molecular target: B1; assay: co-IP; GFP-Ait1 or GFP-Ait1C3v2 immunopurified on anti-GFP beads in nonionic detergent (digitonin) without a crosslinker; blot with anti-Myc and anti-GFP; log phase, 30 min amino acid starvation, long-term amino acid and glucose starvation; conditions: partners not purified

| amount copurified after long-term amino acid and glucose starvation, relative to log-phase growth (Kog1-FLAG) | amount copurified after long-term amino acid and glucose starvation, relative to log-phase growth (GFP-Ait1) | Binder |
| --- | --- | --- |
| 50 % of the level found in log-phase growth | – | B1 |
| – | 60 % of the level found in log-phase growth | B2 |
